Test results from US20200123260A1.

Tests used:
[1] = biological target: hTrkA in the SHC1 recruitment assay (U2OS, Discoverx Pathhunter) (human) (UniProt P04629); assay: cell-based or functional assay
[2] = biological target: hTrkB-a isoform fused to a small peptide epitope, in U2OS cells (Discoverx Pathhunter) (human) (UniProt Q16620); assay: cell-based or functional assay
[3] = biological target: hTrkC in the SHC1 recruitment assay (U2OS, Discoverx Pathhunter) (human) (UniProt Q16288); assay: cell-based or functional assay
Chain of hTrkC in the SHC1 recruitment assay (U2OS, Discoverx Pathhunter) (human) (Q16288 32-839): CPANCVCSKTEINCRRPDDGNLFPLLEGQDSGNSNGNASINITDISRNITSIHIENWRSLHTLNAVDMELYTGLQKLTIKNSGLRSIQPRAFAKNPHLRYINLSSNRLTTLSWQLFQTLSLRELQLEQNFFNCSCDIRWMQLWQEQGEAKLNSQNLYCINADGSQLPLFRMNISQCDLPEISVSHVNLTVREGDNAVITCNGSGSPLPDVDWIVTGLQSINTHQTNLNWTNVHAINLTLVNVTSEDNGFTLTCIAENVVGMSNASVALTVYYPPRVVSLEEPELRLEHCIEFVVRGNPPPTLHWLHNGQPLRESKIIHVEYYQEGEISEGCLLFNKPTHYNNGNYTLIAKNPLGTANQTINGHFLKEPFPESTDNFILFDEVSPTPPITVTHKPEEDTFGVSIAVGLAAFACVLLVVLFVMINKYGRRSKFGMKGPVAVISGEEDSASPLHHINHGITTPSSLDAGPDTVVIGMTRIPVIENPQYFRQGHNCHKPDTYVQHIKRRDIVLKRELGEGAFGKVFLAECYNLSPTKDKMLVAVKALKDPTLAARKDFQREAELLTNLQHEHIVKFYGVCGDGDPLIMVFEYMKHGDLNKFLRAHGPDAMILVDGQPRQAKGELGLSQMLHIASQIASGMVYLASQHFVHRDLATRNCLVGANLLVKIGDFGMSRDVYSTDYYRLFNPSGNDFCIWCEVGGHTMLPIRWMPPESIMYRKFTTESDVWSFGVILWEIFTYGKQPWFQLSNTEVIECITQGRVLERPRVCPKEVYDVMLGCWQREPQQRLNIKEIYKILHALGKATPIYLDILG

[4] = biological target: human TrkC (open reading frame from NM_001012338.1) in HEK-293 cells (human) (UniProt Q16288); assay: cell-based or functional assay
Chain of human TrkC (open reading frame from NM_001012338.1) in HEK-293 cells (human) (Q16288 32-839): as above

[5] = biological target: TrkB, Dog (Canis familiaris, XM_851329) on 293 cells (dog (Canis familiaris)); assay: cell-based ELISA on transfected 293 cells
Chain of TrkB, Dog (Canis familiaris, XM_851329) on 293 cells (dog (Canis familiaris)) (Q16620 other isoform, or with tags, fused parts or gaps limits assumed): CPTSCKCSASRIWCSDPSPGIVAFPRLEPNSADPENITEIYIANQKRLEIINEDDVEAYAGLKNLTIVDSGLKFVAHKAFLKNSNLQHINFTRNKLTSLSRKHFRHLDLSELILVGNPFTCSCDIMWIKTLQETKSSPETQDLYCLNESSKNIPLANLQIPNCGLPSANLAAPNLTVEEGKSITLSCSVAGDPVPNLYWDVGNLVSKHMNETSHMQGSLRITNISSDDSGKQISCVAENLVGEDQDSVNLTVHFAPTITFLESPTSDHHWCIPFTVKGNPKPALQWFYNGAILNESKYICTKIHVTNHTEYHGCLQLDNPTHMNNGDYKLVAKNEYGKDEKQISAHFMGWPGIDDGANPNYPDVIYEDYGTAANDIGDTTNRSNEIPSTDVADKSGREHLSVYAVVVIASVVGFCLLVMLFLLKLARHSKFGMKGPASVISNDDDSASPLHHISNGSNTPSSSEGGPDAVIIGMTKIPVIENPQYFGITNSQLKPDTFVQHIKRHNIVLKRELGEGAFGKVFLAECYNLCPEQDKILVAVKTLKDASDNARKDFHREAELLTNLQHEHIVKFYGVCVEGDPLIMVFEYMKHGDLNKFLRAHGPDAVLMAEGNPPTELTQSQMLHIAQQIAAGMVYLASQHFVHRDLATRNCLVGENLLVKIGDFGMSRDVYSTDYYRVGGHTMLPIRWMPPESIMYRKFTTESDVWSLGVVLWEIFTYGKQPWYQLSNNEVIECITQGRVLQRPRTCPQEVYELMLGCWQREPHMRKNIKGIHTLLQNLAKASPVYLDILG

[6] = biological target: TrkB, Dog (Canis familiaris, XM_851329) on 293 cells (dog (Canis familiaris)); assay: cell-based ELISA on transiently transfected HEK293 cells

Chain of hTrkA in the SHC1 recruitment assay (U2OS, Discoverx Pathhunter) (human) (P04629 33-796): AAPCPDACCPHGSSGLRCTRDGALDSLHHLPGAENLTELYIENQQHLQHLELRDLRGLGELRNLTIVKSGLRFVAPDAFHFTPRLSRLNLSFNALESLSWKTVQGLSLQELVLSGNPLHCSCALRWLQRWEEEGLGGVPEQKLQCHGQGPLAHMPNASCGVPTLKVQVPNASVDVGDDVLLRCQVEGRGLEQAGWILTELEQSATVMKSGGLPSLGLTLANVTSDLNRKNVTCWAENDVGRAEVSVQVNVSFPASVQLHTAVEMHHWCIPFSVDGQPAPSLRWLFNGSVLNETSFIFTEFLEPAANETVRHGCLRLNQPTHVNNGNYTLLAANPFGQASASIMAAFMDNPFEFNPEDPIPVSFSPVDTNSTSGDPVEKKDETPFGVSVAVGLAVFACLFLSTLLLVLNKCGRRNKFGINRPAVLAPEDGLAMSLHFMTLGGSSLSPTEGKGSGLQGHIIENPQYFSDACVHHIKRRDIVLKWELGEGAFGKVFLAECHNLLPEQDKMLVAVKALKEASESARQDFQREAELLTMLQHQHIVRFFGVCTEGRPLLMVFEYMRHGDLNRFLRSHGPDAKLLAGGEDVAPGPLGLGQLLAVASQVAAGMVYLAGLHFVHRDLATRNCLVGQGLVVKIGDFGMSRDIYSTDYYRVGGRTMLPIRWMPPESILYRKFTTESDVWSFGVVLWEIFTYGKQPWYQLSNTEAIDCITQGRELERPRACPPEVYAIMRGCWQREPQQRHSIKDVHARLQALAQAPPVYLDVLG
Chain of hTrkB-a isoform fused to a small peptide epitope, in U2OS cells (Discoverx Pathhunter) (human) (Q16620 32-822): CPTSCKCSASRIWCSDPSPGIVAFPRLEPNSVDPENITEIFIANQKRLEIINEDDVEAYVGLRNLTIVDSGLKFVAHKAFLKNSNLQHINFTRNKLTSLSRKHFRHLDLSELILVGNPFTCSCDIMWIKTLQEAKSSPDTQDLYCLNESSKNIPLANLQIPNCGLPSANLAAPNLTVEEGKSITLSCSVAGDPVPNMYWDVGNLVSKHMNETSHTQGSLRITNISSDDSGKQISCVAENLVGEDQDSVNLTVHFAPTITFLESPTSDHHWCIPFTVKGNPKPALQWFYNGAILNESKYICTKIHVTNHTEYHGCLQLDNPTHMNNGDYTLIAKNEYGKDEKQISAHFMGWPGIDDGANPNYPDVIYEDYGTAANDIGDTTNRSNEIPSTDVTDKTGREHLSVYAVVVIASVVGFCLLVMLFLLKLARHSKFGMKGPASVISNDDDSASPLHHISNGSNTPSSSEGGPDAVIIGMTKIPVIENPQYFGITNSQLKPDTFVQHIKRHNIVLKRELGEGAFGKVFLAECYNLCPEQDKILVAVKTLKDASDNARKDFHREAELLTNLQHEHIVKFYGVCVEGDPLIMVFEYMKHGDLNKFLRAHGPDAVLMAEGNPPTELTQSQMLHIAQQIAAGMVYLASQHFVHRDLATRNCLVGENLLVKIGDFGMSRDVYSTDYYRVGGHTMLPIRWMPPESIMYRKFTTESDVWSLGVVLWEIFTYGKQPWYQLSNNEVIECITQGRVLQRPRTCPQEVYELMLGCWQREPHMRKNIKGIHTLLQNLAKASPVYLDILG

| Binder | EC50, SHC1 recruitment assay [1] | Fold-increase, SHC1 recruitment assay [1] | EC50, SHC1 recruitment assay [2] | Fold-increase, SHC1 recruitment assay [2] | Fold-increase, SHC1 recruitment assay [3] | EC50, SHC1 recruitment assay [3] | Cre-luciferase reporter, fold increase [4] | EC50 [5] | EC50 [6] |
| --- | --- | --- | --- | --- | --- | --- | --- | --- | --- |
| NT-4 (ligand, UniProt P34130 81-210, looked up, species assumed, Neurotrophin-4) Neurotrophin-4: GVSETAPASRRGELAVCDAVSGWVTDRRTAVDLRGREVEVLGEVPAAGGSPLRQYFFETRCKADNAEEGGPGAGGGGCRGVDRRHWVSECKAKQSYVRALTADAQGRVGWRWIRIDTACVCTLLSRTGRA | 0.43 nM | 9 fold | 0.33 nM | 6.1 fold | 1.1 fold | – | – | – | – |
| NT3 (R&D267N3) (ligand, UniProt P20783 139-257, looked up, species assumed, Neurotrophin-3) Neurotrophin-3: YAEHKSHRGEYSVCDSESLWVTDKSSAIDIRGHQVTVLGEIKTGNSPVKQYFYETRCKEARPVKNGCRGIDDKHWNSQCKTSQTYVRALTSENNKLVGWRWIRIDTSCVCALSRKIGRT | 1.49 nM | 9.2 fold | 0.5 nM | 7.7 fold | 10.5 fold | 0.86 nM | 2.9 fold | – | – |

Further lines, results first:

| EC50, SHC1 recruitment assay [1] | Fold-increase, SHC1 recruitment assay [1] | EC50, SHC1 recruitment assay [2] | Fold-increase, SHC1 recruitment assay [2] | Fold-increase, SHC1 recruitment assay [3] | EC50, SHC1 recruitment assay [3] | Cre-luciferase reporter, fold increase [4] | EC50 [5] | EC50 [6] | Binder |
| --- | --- | --- | --- | --- | --- | --- | --- | --- | --- |
| – | – | – | – | – | – | – | 0.55 nM | 0.94 nM | TAM-163 (huTOA-1 v1.0/1.4) (antibody, human IgG1, kappa, V domains shown) VH: EVQLVESGGGLVQPGGSLRLSCAASGYSFTAYFMNWVRQAPGKGLEWVARINPNNGDTFYTQKFKGRFTISRDNAKNSLYLQMNSLRAEDTAVYYCARRDYFGAMDYWGQGTLVTVSS VL: DIQMTQSPSSLSASVGDRVTITCRASQTISNNLHWYQQKPGKAPKLLIKSASLAISGVPSRFSGSGSGTDFTLTISSLQPEDFATYYCQQSNSWPNTFGGGTKVEIKR |
| – | – | – | – | – | – | – | 0.65 nM | – | mouse TOA-1 antibody (antibody, mouse IgG1, V domains shown) VH: EVQLQQSGPELVKPGASMKISCKTSGYSFTAYFMNWVKQSHGKSLEWIGRINPNNGDTFYTQKFKGKATLTVDKSSNTAHMELLSLTSEDSAIYYCGRRDYFGAMDYWGQGTSVTVSS VL: AIVLIQSPATLSVTPGDSVSLSCRASQTISNNLHWYQQKSHESPRLLIKSASLAISGIPSRFSGSGSGTDFTLSISSVETEDFGMYFCQQSNSWPNTFGGGTKLEIK |
